The supplement of paper PMC10126150
± gives the standard deviation of the averaged measurements.
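Also: ATP exposure 15 min at 22 °C before imaging.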

What follows are sequences tested on ATP (assay: switch fluorescence ratio, 500 uM ATP over buffer (Cy3 cluster intensity, sum of 5 cycles each) (fold (ratio)); higher = stronger signal-on switching upon ATP binding; sequences stand for … in TCGTCGGCAGCGTCAGATGTGTATAAGAGACAGTTTTTTTTTTTTTTTTTTTTTTTTT…TC). Settings: aptamer strand: ATP DNA aptamer (quencher-CACCTGGGGGAGTATTGCGGAGGAAGG + anchor), 100 nM annealed; ATP concentration: 500 uM.
Summary of the method: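 Cy3-labelled switching-strand clusters on a modified Illumina MiSeq flow-cell were annealed to 100 nM quencher-labelled ATP aptamer and imaged first in selection buffer, then after 15 min with 500 uM ATP at 22 °C. NaOH stripping and re-annealing separated each of five buffer/ATP cycles, and clusters outside 100-1000 RFU were excluded. The fluorescence ratio sums target-cycle Cy3 intensity over buffer-cycle Cy3 intensity per cluster and averages it per switch-domain sequence.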
In the case of GGACTAGGTT, the switch fluorescence ratio is reported as 1.006 ± 0.0033.
GGACTCTAGG was tested, and the switch fluorescence ratio was 0.979 ± 0.027.
GGACTGAGGA was tested, and the switch fluorescence ratio was 1.002 ± 0.01.
Sequence GGACTGTGGG has a switch fluorescence ratio of 1.02 ± 0.044.
In the case of GGACTGTTTG, the switch fluorescence ratio is reported as 1.01 ± 0.041.
In the case of GGACTTAATG, the switch fluorescence ratio is reported as 1.02 ± 0.016.
With GGACTTGGTT the switch fluorescence ratio was 1.01 ± 0.034.
For GGAGAATATT, the switch fluorescence ratio was 1.02 ± 0.059.
For GGAGACGGGT, the switch fluorescence ratio was 1.02 ± 0.036.
Sequence GGAGAGAAGC has a switch fluorescence ratio of 1.02 ± 0.076.
GGAGAGATTT showed a switch fluorescence ratio of 1.01 ± 0.034.
GGAGAGGTTG showed a switch fluorescence ratio of 0.971 ± 0.021.
In the case of GGAGAGTCGG, the switch fluorescence ratio is reported as 0.977 ± 0.035.
Sequence GGAGATATTA has a switch fluorescence ratio of 1.01 ± 0.026.
GGAGCAAAGG was tested, and the switch fluorescence ratio was 2.63 ± 0.1.
For GGAGCGAGGG, the switch fluorescence ratio was 1.11 ± 0.061.
Work on GGAGGAAGAT yielded a switch fluorescence ratio of 1.047 ± 0.0093.
GGAGGACTCG showed a switch fluorescence ratio of 0.982 ± 0.05.
GGAGGAGAAT showed a switch fluorescence ratio of 1 ± 0.014.
Sequence GGAGGCCCCA has a switch fluorescence ratio of 0.996 ± 0.033.
GGAGGCGTTC showed a switch fluorescence ratio of 0.995 ± 0.013.
GGAGGCTGAG gave a switch fluorescence ratio of 0.993 ± 0.011.
GGAGGGACTG showed a switch fluorescence ratio of 1.06 ± 0.17.
GGAGGGAGGT showed a switch fluorescence ratio of 1.01 ± 0.012.
GGAGGGAGTG showed a switch fluorescence ratio of 0.98 ± 0.025.
In the case of GGAGGGCGTG, the switch fluorescence ratio is reported as 0.988 ± 0.021.
Work on GGAGGGGCAC yielded a switch fluorescence ratio of 0.979 ± 0.036.
Work on GGAGGGGGAT yielded a switch fluorescence ratio of 1.03 ± 0.043.
Work on GGAGGGGGCG yielded a switch fluorescence ratio of 0.999 ± 0.061.
Sequence GGAGGGGGGT has a switch fluorescence ratio of 1.01 ± 0.023.
GGAGGGGGTT was tested, and the switch fluorescence ratio was 1.01 ± 0.051.
In the case of GGAGGGGTTG, the switch fluorescence ratio is reported as 1.04 ± 0.015.
GGAGGGTGGT showed a switch fluorescence ratio of 0.9906 ± 0.0019.
GGAGGTGGGT showed a switch fluorescence ratio of 1.01 ± 0.03.
Work on GGAGGTTGGC yielded a switch fluorescence ratio of 1.02 ± 0.07.
Sequence GGAGGTTTGG has a switch fluorescence ratio of 0.992 ± 0.044.
For GGAGTAATTT, the switch fluorescence ratio was 1.07 ± 0.016.
In the case of GGAGTAGACT, the switch fluorescence ratio is reported as 1.02 ± 0.02.
Sequence GGAGTAGCTA has a switch fluorescence ratio of 1.03 ± 0.04.
GGAGTAGGGA gave a switch fluorescence ratio of 1.02 ± 0.031.
For GGAGTGTTTC, the switch fluorescence ratio was 1.01 ± 0.016.
GGAGTTAGGA was tested, and the switch fluorescence ratio was 0.9866 ± 0.0098.
GGAGTTAGTC showed a switch fluorescence ratio of 1.01 ± 0.021.
For GGAGTTATAA, the switch fluorescence ratio was 1.05 ± 0.034.
GGAGTTTAAG was tested, and the switch fluorescence ratio was 0.996 ± 0.039.
Work on GGAGTTTCGG yielded a switch fluorescence ratio of 1 ± 0.031.
Sequence GGATAACGTA has a switch fluorescence ratio of 1.01 ± 0.049.
GGATAGCCGA showed a switch fluorescence ratio of 0.99 ± 0.086.
For GGATAGCTCG, the switch fluorescence ratio was 0.987 ± 0.041.
GGATAGGATG was tested, and the switch fluorescence ratio was 0.974 ± 0.022.
GGATAGTGGT showed a switch fluorescence ratio of 1.01 ± 0.0079.
Work on GGATATACGT yielded a switch fluorescence ratio of 1.01 ± 0.017.
In the case of GGATATATTG, the switch fluorescence ratio is reported as 1.02 ± 0.024.
GGATATCGAG showed a switch fluorescence ratio of 0.9982 ± 0.0069.
Sequence GGATATCGTT has a switch fluorescence ratio of 1.032 ± 0.0059.
Sequence GGATATGGCA has a switch fluorescence ratio of 1.01 ± 0.037.
With GGATATGGTT the switch fluorescence ratio was 0.987 ± 0.034.
With GGATATGTTG the switch fluorescence ratio was 0.994 ± 0.019.
With GGATATTTTT the switch fluorescence ratio was 1.01 ± 0.016.
For GGATCACTTA, the switch fluorescence ratio was 1.02 ± 0.023.
Sequence GGATCATGTG has a switch fluorescence ratio of 1.004 ± 0.0049.
Work on GGATCCGAGC yielded a switch fluorescence ratio of 1.03 ± 0.033.
GGATCGAGAC gave a switch fluorescence ratio of 0.9755 ± 0.0034.
With GGATCTTAAG the switch fluorescence ratio was 0.991 ± 0.035.
GGATGACCTA showed a switch fluorescence ratio of 0.976 ± 0.021.
With GGATGACGTC the switch fluorescence ratio was 1.035 ± 0.0091.
Work on GGATGACTGG yielded a switch fluorescence ratio of 0.9993 ± 0.0061.
With GGATGAGGGA the switch fluorescence ratio was 0.957 ± 0.029.
GGATGAGTGC showed a switch fluorescence ratio of 0.99 ± 0.023.
GGATGATCGT was tested, and the switch fluorescence ratio was 0.954 ± 0.029.
With GGATGATGGG the switch fluorescence ratio was 1.01 ± 0.046.
In the case of GGATGCATTG, the switch fluorescence ratio is reported as 0.972 ± 0.011.
For GGATGCTAGG, the switch fluorescence ratio was 1.01 ± 0.048.
Sequence GGATGGACTG has a switch fluorescence ratio of 0.937 ± 0.035.
For GGATGGGGTC, the switch fluorescence ratio was 0.975 ± 0.02.
GGATGGTTCG gave a switch fluorescence ratio of 0.972 ± 0.023.
Sequence GGATGGTTGC has a switch fluorescence ratio of 1.03 ± 0.021.
GGATGTCCAG gave a switch fluorescence ratio of 0.947 ± 0.028.
GGATGTGCTG gave a switch fluorescence ratio of 1.04 ± 0.049.
GGATGTTATT was tested, and the switch fluorescence ratio was 0.9915 ± 0.0094.
With GGATGTTCGT the switch fluorescence ratio was 0.9911 ± 0.0083.
With GGATTAGGGC the switch fluorescence ratio was 1.02 ± 0.041.
With GGATTAGTGA the switch fluorescence ratio was 0.964 ± 0.036.
Sequence GGATTCAAAG has a switch fluorescence ratio of 0.993 ± 0.015.
GGATTCTAGG showed a switch fluorescence ratio of 0.969 ± 0.02.
Sequence GGATTCTGGG has a switch fluorescence ratio of 0.963 ± 0.042.
In the case of GGATTCTGTG, the switch fluorescence ratio is reported as 0.969 ± 0.018.
Work on GGATTGAATG yielded a switch fluorescence ratio of 0.972 ± 0.025.
For GGATTGGATG, the switch fluorescence ratio was 0.983 ± 0.046.
Sequence GGATTGGGCA has a switch fluorescence ratio of 1.01 ± 0.021.
With GGATTGGTAA the switch fluorescence ratio was 0.9919 ± 0.00028.
Work on GGATTGTGAG yielded a switch fluorescence ratio of 0.987 ± 0.042.
Sequence GGATTTACGT has a switch fluorescence ratio of 1.02 ± 0.023.
In the case of GGATTTCGTG, the switch fluorescence ratio is reported as 0.986 ± 0.024.
Work on GGATTTGAGT yielded a switch fluorescence ratio of 0.976 ± 0.015.
Sequence GGATTTGCCA has a switch fluorescence ratio of 0.989 ± 0.038.
Work on GGATTTGGGT yielded a switch fluorescence ratio of 0.981 ± 0.017.
Work on GGATTTTGGG yielded a switch fluorescence ratio of 1.01 ± 0.028.
GGATTTTTGT gave a switch fluorescence ratio of 0.997 ± 0.022.
Sequence GGATTTTTTT has a switch fluorescence ratio of 1 ± 0.032.
